Test results as given in patent US7867500B2, “Cofactor that modulates steroid receptor activities” (The United States of America as represented by the …, priority 2004, dated 2011).

T1: TIF2(1140C) (Homo sapiens, UniProt Q15596)
T1 construct: the PCR product of TIF2 with the TIF2-1140F and TIF2-1464R primers; expressed in transfected cells; host or cells: CV-1
T1 sequence (Q15596 1140-1464): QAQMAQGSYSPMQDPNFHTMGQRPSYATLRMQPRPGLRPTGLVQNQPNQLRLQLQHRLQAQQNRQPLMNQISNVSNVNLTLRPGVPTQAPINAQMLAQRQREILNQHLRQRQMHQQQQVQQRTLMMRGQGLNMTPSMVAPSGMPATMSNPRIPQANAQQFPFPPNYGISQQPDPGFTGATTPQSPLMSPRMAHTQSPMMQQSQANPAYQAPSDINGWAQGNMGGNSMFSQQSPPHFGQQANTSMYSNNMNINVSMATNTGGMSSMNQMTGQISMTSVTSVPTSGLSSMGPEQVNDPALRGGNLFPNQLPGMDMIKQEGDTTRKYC

B1: 6-6CL1: STAMP fragment amino acids 623-834, coactivator interaction domain (CID) (protein)
chain: ENTPKENSMKVREWNNKGGHCCKLETQELEPKFNLMQILQDNGNLSKMQARIAFSAYLQHVQIRLMKDSGGQTFSASWAAKEDEQMELVVRFLKRASNNLQHSLRMVLPSRRLALLERRRILAHQLGDFIIVYNKETEQMAEKKSKKKVEEEEEDGVNMENFQEFIRQASEAELEEVLTFYTQKNKSASVFLGTHSKISKNNNNYSDSGAKG
B2: STAMP: SRC-1 and TIF2 Associated Modulatory Protein, 1277 amino acid human polypeptide, expressed from transfected plasmid (protein)
chain: MARDLEETASSSEDEEVISQEDHPCIMWTGGCRRIPVLVFHADAILTKDNNIRVIGERYHLSYKIVRTDSRLVRSILTAHGFHEVHPSSTDYNLMWTGSHLKPFLLRTLSEAQKVNHFPRSYELTRKDRLYKNIIRMQHTHGFKVFHILPQTFLLPAEYAEFCNSYSKDRGPWIVKPVASSRGRGVYLINNPNQISLEENILVSRYINNPLLIDDFKFDVRLYVLVTSYDPLVIYLYEEGLARFATVRYDQGAKNIRNQFMHLTNYSVNKKSGDYVSCDDPEVEDYGNKWSMSAMLRYLKQEGRDTTALMAHVEDLIIKTIISAELAIATACKTFVPHRSSCFELYGFDVLIDSTLKPWLLEVNLSPSLACDAPLDLKIKASMISDMFTVVGFVCQDPAQRASTRPIYPTFESSRRNPFQKPQRCRPLSASDAEMKNLVGSAREKGPGKLGGSVLGLSMEEIKVLRRVKEENDRRGGFIRIFPTSETWEIYGSYLEHKTSMNYMLATRLFQDRMTADGAPELKIESLNSKAKLHAALYERKLLSLEVRKRRRRSSRLRAMRPKYPVITQPAEMNVKTETESEEEEEVALDNEDEEQEASQEESAGFLRENQAKYTPSLTALVENTPKENSMKVREWNNKGGHCCKLETQELEPKFNLMQILQDNGNLSKMQARIAFSAYLQHVQIRLMKDSGGQTFSASWAAKEDEQMELVVRFLKRASNNLQHSLRMVLPSRRLALLERRRILAHQLGDFIIVYNKETEQMAEKKSKKKVEEEEEDGVNMENFQEFIRQASEAELEEVLTFYTQKNKSASVFLGTHSKISKNNNNYSDSGAKGDHPETIMEEVKIKPPKQQQTTEIHSDKLSRFTTSAEKEAKLVYSNSSSGPTATLQKIPNTHLSSVTTSDLSPGPCHHSSLSQIPSAIPSMPHQPTILLNTVSASASPCLHPGAQNIPSPTGLPRCRSGSHTIGPFSSFQSAAHIYSQKLSRPSSAKAGSCYLNKHHSGIAKTQKEGEDASLYSKRYNQSMVTAELQRLAEKQAARQYSPSSHINLLTQQVTNLNLATGIINRSSASAPPTLRPIISPSGPTWSTQSDPQAPENHSSSPGSRSLQTGGFAWEGEVENNVYSQATGVVPQHKYHPTAGSYQLQFALQQLEQQKLQSRQLLDQSRARHQAIFGSQTLPNSNLWTMNNGAGCRISSATASGQKPTTLPQKVVPPPSSCASLVPKPPPNHEQVLRRATSQKASKGSSAEGQLNGLQSSLNPAASVPITSSTDPAHTKI

Assays:
TIF2(1140C) = target: T1, TIF2(1140C); assay: Mammalian two-hybrid assay in CV-1 cells with TIF2(1140C); type: cell-based
Excerpt: FIG. 2A-2C illustrate the isolation and characterization of the partial clone of the protein that binds to TIF2.4. […] Five clones were obtained but only two (clones I and V) contained a protein that was needed for colony growth in the presence of the pSos/TIF2.4 fusion protein. After initial screening, only clone I (also named 6-6CL1) was selected for further investigation. FIG. 2B and FIG. 2C illustrate the selectivity of 6-6CL1 interactions with TIF2.4 in mammalian two-hybrid assays. Triplicate samples of CV-1 cells in 24-well plates were transiently transfected with the indicated GAL-DBD and VP16-AD plasmids along with the GAL4-regulated reporter, pFRLuc. The relative luciferase activity, normalized for the activity of the internal Renilla control, was determined and plotted as the average±S.D. The much lower activity of GAL/TIF2.4m123 was previously shown not to be due to unequal levels of protein expression (He et al., 2002). Similar results were obtained in three additional experiments. […] Triplicate samples of CV-1 cells in 24-well plates were analyzed as in (B&C) after being transiently transfected with GAL±6-6CL1 constructs and pFRLuc reporter along with VP16 chimeras of SRC-1 (FIG. 2D) or TIF2 (FIG. 2E) segments. Similar results for SRC-1 were obtained in two additional experiments (ND=not determined). […]

GRIP1 = target: T2, GRIP1 (Mus musculus, UniProt Q61026); assay: Whole cell co-immunoprecipitation in Cos-7 cells: HA-GRIP1; type: binding; details: EtOH ± 1 μM Dex, 2 hr
T2 construct: expressed in transfected cells; host or cells: Cos-7
Procedure: FIG. 7C1-3 illustrate whole cell co-immunoprecipitation of STAMP, GR, and TIF2/GRIP1. Cos-7 cells that had been co-transfected with Flag/STAMP (or Flag itself), HA/GRIP1, and GR plasmids (10 μg of each/150 mm dish) for 48 hr were treated for 2 hr with EtOH±1 μM Dex before being lysed as described in Example 1. Lysate was either analyzed on SDS-PAGE gels or treated with anti-Flag antibody to immunoprecipitate Flag/STAMP. The pellets were separated on SDS-PAGE gels and Western blotted with anti-Flag (FIG. 7C1), anti-HA (FIG. 7C2), or anti-GR antibodies (FIG. 7C3). In each panel, lane 1=5.7% of input lysate, lane 2=IP pellet of Flag/STAMP, HA/GRIP1, and GR+EtOH, lane 3=IP pellet of Flag/STAMP, HA/GRIP1, and GR+Dex, and lane 4=control IP pellet of Flag, HA/GRIP1, and GR+EtOH. Similar results were obtained in a second experiment.
Immunoprecipitations were conducted as generally described in Wang et al. (2004) Mol. Endocrinol. 18: 1476-95, with slight modifications. The day before transfection, Cos-7 cells were seeded into 150 mm dishes at 200,000 cells per dish containing 20 ml of media. On the next day, about 30 μg of DNA/dish was transfected with 60 μl of FuGene reagent. […]

T2 sequence (Q61026 5-1462 limits assumed, one chain of several): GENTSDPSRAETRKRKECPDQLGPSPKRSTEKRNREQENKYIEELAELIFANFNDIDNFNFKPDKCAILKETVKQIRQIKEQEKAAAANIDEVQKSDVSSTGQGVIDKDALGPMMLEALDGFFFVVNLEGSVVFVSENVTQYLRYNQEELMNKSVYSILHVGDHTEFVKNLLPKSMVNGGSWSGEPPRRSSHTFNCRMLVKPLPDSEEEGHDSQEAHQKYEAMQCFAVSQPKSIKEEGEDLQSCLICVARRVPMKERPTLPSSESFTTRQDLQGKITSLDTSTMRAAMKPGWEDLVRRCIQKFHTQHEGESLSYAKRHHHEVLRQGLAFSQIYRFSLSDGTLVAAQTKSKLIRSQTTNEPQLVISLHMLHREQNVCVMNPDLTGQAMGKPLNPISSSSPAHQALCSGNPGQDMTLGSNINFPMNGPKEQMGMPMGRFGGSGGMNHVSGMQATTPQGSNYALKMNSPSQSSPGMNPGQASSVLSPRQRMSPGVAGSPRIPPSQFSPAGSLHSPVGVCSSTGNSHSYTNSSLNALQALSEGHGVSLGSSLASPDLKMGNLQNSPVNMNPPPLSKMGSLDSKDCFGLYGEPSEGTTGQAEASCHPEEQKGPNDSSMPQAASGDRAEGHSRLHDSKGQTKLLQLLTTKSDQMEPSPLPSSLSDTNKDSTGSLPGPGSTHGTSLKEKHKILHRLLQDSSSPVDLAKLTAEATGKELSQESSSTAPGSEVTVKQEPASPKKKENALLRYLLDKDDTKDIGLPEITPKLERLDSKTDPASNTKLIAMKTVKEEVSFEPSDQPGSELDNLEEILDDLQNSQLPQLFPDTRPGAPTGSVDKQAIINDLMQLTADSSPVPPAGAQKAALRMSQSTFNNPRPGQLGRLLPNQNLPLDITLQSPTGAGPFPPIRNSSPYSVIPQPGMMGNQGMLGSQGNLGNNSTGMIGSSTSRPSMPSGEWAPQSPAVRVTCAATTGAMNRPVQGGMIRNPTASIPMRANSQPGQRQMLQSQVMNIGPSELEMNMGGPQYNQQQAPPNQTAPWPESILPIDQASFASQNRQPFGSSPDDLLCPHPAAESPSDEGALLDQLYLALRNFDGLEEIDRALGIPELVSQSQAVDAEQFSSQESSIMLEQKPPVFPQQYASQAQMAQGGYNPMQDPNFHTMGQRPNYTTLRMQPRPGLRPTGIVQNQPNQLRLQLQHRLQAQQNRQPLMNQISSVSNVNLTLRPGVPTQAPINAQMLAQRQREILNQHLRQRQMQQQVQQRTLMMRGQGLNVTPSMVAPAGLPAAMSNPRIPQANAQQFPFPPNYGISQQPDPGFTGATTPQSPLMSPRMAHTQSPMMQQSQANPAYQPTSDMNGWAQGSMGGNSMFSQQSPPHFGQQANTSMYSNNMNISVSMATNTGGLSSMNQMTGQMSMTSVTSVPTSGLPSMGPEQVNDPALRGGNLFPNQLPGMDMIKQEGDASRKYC

Molecule	interaction with TIF2(1140C) (TIF2(1140C))	co-immunoprecipitation of GRIP1 with Flag-STAMP by anti-Flag antibody (GRIP1)
B1	does not interact	–
B2	–	co-immunoprecipitated
